In article PMC6783537:

Biological target: full-length mouse IGF1R (MmIGF1R), residues 1–1262, Y951A, D1107N (mouse) (UniProt Q60751)
Test: cryo-EM structure; purified MmIGF1R and HsIGF1 mixed at molar ratio 1:2, 1 h at 4 °C, complex purified by SEC in 20 mM Hepes-Na pH 7.4, 200 mM NaCl, 0.03% DDM; 4.3 Å

Sequence of full-length mouse IGF1R (MmIGF1R), residues 1–1262, Y951A, D1107N (mouse) (Q60751 31-1292 Y981A/D1137N): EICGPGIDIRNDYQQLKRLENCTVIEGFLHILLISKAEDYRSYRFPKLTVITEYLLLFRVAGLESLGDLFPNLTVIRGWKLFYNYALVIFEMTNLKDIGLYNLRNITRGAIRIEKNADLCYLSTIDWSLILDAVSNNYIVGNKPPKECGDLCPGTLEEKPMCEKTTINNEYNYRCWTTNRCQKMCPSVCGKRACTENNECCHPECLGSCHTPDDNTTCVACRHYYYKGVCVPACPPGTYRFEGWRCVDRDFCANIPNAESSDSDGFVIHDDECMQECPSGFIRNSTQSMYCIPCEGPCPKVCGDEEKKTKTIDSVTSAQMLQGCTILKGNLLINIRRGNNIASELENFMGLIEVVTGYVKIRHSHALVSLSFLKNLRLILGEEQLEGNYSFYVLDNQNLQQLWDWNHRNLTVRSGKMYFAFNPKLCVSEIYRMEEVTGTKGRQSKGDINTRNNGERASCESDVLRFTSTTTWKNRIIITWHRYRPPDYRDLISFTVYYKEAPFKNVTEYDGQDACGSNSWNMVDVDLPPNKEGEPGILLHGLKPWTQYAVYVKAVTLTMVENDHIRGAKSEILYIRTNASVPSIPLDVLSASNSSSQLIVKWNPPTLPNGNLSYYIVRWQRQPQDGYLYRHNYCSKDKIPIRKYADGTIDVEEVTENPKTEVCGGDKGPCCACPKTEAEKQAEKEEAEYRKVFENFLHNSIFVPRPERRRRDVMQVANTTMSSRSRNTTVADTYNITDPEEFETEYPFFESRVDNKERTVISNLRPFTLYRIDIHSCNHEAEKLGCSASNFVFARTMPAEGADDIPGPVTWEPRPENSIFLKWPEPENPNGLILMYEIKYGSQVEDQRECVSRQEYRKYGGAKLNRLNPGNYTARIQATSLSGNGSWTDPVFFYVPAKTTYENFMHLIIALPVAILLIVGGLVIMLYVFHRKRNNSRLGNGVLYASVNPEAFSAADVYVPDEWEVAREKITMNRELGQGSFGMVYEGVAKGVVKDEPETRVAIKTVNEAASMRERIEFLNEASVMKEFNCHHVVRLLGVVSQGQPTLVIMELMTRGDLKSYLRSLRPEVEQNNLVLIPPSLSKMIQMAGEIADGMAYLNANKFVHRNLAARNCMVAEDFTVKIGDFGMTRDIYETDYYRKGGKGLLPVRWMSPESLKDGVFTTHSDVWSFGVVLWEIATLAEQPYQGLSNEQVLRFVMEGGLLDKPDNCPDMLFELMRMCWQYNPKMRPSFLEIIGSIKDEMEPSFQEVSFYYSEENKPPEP

stoichiometry N (IGF1 per IGF1R dimer): 1
Substance: human IGF1 (HsIGF1), mature, residues 49–118 (ligand)
